According to US6544520B1, “Hepatitis B virus inhibitors” (priority 1996, dated 2003):
Several values for one entry are separate records, joined by “and”; a condition that tells them apart may be missing. Identical values can stand only once. Non-standard residues stand in square brackets, D forms with d. Residues, ends and D or L forms follow the SMILES beside them. No end group written: not given here. βAla = NCCC(=O)O

biological target: hepatitis B virus core antigen (HBcAg) (hepatitis B virus); test: peptide inhibition of 35S-labeled L HBsAg binding to HBcAg-coated wells; conditions: not given
Sequence (P03147 whole entry): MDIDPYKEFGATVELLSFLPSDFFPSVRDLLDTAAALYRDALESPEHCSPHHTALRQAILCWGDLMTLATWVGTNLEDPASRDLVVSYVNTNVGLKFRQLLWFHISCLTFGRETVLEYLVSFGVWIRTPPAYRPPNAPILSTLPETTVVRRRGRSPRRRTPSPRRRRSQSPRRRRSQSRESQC

**Q.** How did the IC50 turn out when peptide ALLGRMKG was run?
**A.** 10 µM

**Q.** With peptide LDPAFR as the molecule, how does the IC50 read?
**A.** 360 µM

biological target: T1, association of L HBsAg with HBcAg (Hepatitis B virus genotype D subtype adw, UniProt P03147); test: biochemical; format: binding; conditions: not given
T1 construct: Purification of Particles Comprising Full-Length or Truncated HBcAg; made in house; host or cells: HBcAg: E. coli RB 791; L HBsAg: in vitro translation in rabbit reticulocyte lysate with canine pancreatic microsomal membranes
Protocol: Inhibitors of the Association of HBsAg with HBcAg. The assay system developed for inhibitors of the interaction between HBsAg and HBcAg involved incubating purified membrane-inserted ^35S-labeled L polypeptide in HBcAg-coated wells and quantitating bound protein by scintillation counting. […] The principal target for polyclonal antibodies to the native, particulate S HBsAg resides between as 110 and aa 150 (31-33). […] However, large molecules, such as immunoglobulins, can cause stearic hindrance over a considerable distance in any compound to which they bind.
Inhibition of Membrane-Inserted L-Protein Binding to HBcAg by Antibodies and Peptides. Canine pancreatic microsomal membranes containing labeled protein were purified by layering the translation mixture (60 μl) on a 4-ml step gradient of 1-ml intervals of 77% (wt/vol), 30%, 20%, and 10% sucrose containing 20 mM Hepes (adjusted to pH 7.5 with NaOH)/2 mM dithiothreitol for fractionation by centrifugation (50,000 rpm, 2 hr at 4° C.; Sorvall model TsT 60.4 rotor). […] Sucrose gradient-purified L protein (4 μl) was diluted with NET-gel buffer (100 μl) containing various dilutions of either antibody or peptide for inhibition assays. Mixtures were incubated in HBcAg-coated wells (as in the paragraph Isolation of Phage that Bind to HBcAg) for 2 ½ hr at 4° C. and washed five times with NET-gel buffer with 10-min intervals. Wells were placed in scintillation vials containing Ecoscint A (5 ml; National Diagnostics) for quantitation of radioactivity.

T1 sequence (P03147 whole entry, the tested form may be a part): as the sequence (P03147 whole entry) above

**Q.** With “ALLTRILG (HBV Core Antigen Binding Peptide) [peptide including aa 21-27 of the S region, reference compound]” as the molecule, how does the “inhibition of the reaction between L HBsAg and HBcAg (in words)” value read?
**A.** no inhibitory properties

**Q.** With GRMKG (not fully specified) as the molecule, how does the “inhibition of the reaction between L HBsAg and HBcAg (in words)” value read?
**A.** no inhibitory properties

same assay, conditions: IC50: concentration of peptide required to inhibit the binding of L HBsAg to HBcAg at a half maximal level, free peptide; HBcAg-coated wells

**Q.** With CSCC[C@H](NC(=O)[C@H](CCCNC(=N)N)NC(=O)CNC(=O)[C@H](CC(C)C)NC(=O)[C@H](CC(C)C)NC(=O)[C@H](CO)NC(=O)CNC(=O)[C@H](CC(=O)O)NC(=O)[C@H](C)N)C(=O)N[C@@H](CCCCN)C(=O)NCC(=O)N[C@@H](C)C(=O)N[C@@H](C)C(=O)NCC(=O)O as the molecule, how does the IC50 read?
**A.** 4.5 ± 0.8 µM

**Q.** For CSCC[C@H](NC(=O)[C@H](CCCNC(=N)N)NC(=O)CNC(=O)[C@H](CC(C)C)NC(=O)[C@H](CC(C)C)NC(=O)[C@H](CO)NC(=O)CNC(=O)[C@@H](N)CC(=O)O)C(=O)N[C@@H](CCCCN)C(=O)NCC(=O)N[C@@H](C)C(=O)N[C@@H](C)C(=O)O, which IC50 is on record?
**A.** 3 ± 0.4 µM

**Q.** With CSCC[C@H](NC(=O)[C@H](CCCNC(=N)N)NC(=O)CNC(=O)[C@H](CC(C)C)NC(=O)[C@H](CC(C)C)NC(=O)[C@H](CO)NC(=O)CN)C(=O)N[C@@H](CCCCN)C(=O)NCC(=O)N[C@@H](C)C(=O)O as the molecule, how does the IC50 read?
**A.** 0.79 ± 0.23 µM

**Q.** Which IC50 does the source give for CSCC[C@H](NC(=O)[C@H](CCCNC(=N)N)NC(=O)CNC(=O)[C@H](CC(C)C)NC(=O)[C@H](CC(C)C)NC(=O)[C@H](CO)NC(=O)[C@H](CCCNC(=N)N)NC(=O)[C@H](Cc1cnc[nH]1)NC(=O)[C@@H](N)CCSC)C(=O)N[C@@H](CCCCN)C(=O)NCC(=O)N[C@@H](C)C(=O)O here?
**A.** 0.8 ± 0.1 µM

**Q.** For CSCC[C@H](NC(=O)[C@H](CCCNC(=N)N)NC(=O)CNC(=O)[C@H](CC(C)C)NC(=O)[C@H](CC(C)C)NC(=O)[C@H](CO)NC(=O)[C@H](CCCNC(=N)N)NC(=O)[C@H](Cc1c[nH]cn1)NC(=O)[C@@H](N)CCSC)C(=O)N[C@@H](CCCCN)C(=O)NCC(=O)N[C@@H](C)C(=O)NCC(=O)NCCC(=O)NCC(=O)N[C@@H](CS)C(=O)O, which IC50 is on record?
**A.** 3.8 ± 0.69 µM

**Q.** Which IC50 does the source give for CSCC[C@H](NC(=O)[C@H](CCCNC(=N)N)NC(=O)CNC(=O)[C@H](CC(C)C)NC(=O)[C@H](CC(C)C)NC(=O)[C@H](CO)NC(=O)[C@@H](N)CCCNC(=N)N)C(=O)N[C@@H](CCCCN)C(=O)NCC(=O)N[C@@H](C)C(=O)O here?
**A.** 0.29 ± 0.02 µM

**Q.** Which IC50 does the source give for CSCC[C@H](NC(=O)[C@H](CCCNC(=N)N)NC(=O)CNC(=O)[C@H](CC(C)C)NC(=O)[C@H](CC(C)C)NC(=O)[C@H](CO)NC(=O)[C@@H](N)CCCNC(=N)N)C(=O)N[C@@H](CCCCN)C(=O)NCC(=O)N[C@@H](C)C(=O)NCCC(=O)N[C@@H](CS)C(=O)O here?
**A.** 0.29 ± 0.03 µM

**Q.** How did the IC50 turn out when CSCC[C@H](NC(=O)[C@H](CCCNC(=N)N)NC(=O)CNC(=O)[C@H](CC(C)C)NC(=O)[C@H](CC(C)C)NC(=O)[C@@H](N)CO)C(=O)N[C@@H](CCCCN)C(=O)NCC(=O)NCCC(=O)N[C@@H](CS)C(=O)O (H-SLLGRMKG[βAla]C-OH) was run?
**A.** 1.8 ± 0.4 µM

**Q.** With ALLGRMKG as the molecule, how does the IC50 read?
**A.** 10 µM and 11 µM

**Q.** For Ac-SLLGRMKG, which IC50 is on record?
**A.** 26.2 ± 5 µM

**Q.** Which IC50 does the source give for HRSLLGRMKGA here?
**A.** 0.5 ± 0.04 µM

**Q.** With LDPAFR [LDPAFR, reference compound] as the molecule, how does the IC50 read?
**A.** ~360 µM

**Q.** Which IC50 does the source give for LGRMKG [LGRMKG] here?
**A.** 980 ± 157 µM

**Q.** For LLGRMKG [LLGRMKG], which IC50 is on record?
**A.** 46.2 ± 7.4 µM

**Q.** For SLLGRMK [SLLGRMK], which IC50 is on record?
**A.** 40.7 ± 4.8 µM

**Q.** With SLLGRMKG as the molecule, how does the IC50 read?
**A.** 6.4 ± 0.7 µM

**Q.** Which IC50 does the source give for SLLGRMKGA here?
**A.** 2.4 ± 0.2 µM

same assay, conditions: free peptide; HBcAg-coated wells

**Q.** How did the “IC50: concentration of peptide required to inhibit the binding of L HBsAg to HBcAg at a half maximal level” value turn out when ALLPRMKG was run?
**A.** no

**Q.** GRMKG (not fully specified) was tested. Which “IC50: concentration of peptide required to inhibit the binding of L HBsAg to HBcAg at a half maximal level” value did it give?
**A.** no^2

**Q.** LLGRM (not fully specified) was tested. Which “IC50: concentration of peptide required to inhibit the binding of L HBsAg to HBcAg at a half maximal level” value did it give?
**A.** no

same assay, conditions: inhibition of L HBsAg binding to HBcAg

**Q.** Which “fold improvement over the original ALLGRMKG peptide” value does the source give for CSCC[C@H](NC(=O)[C@H](CCCNC(=N)N)NC(=O)CNC(=O)[C@H](CC(C)C)NC(=O)[C@H](CC(C)C)NC(=O)[C@H](CO)NC(=O)[C@@H](N)CCCNC(=N)N)C(=O)N[C@@H](CCCCN)C(=O)NCC(=O)N[C@@H](C)C(=O)O here?
**A.** > 40 fold

biological target: hepatitis B virus core antigen (HBcAg) (hepatitis B virus); test: peptide inhibition of 35S-labeled L HBsAg binding to HBcAg-coated wells; conditions: not given; remark: another data set of the same source

**Q.** How did the IC50 turn out when peptide ALLGRMKG was run?
**A.** 11 µM

**Q.** How did the IC50 turn out when peptide AcSLLGRMKG was run?
**A.** 26.2 µM

**Q.** For peptide CLLGRMKC, which IC50 is on record?
**A.** 652 µM

**Q.** Which IC50 does the source give for peptide LGRMKG here?
**A.** 980 µM

**Q.** Which IC50 does the source give for peptide LLGRMKG here?
**A.** 46.2 µM

**Q.** For peptide SLLGRMK, which IC50 is on record?
**A.** 40.7 µM

**Q.** For peptide SLLGRMKG, which IC50 is on record?
**A.** 6.4 µM

**Q.** With peptide SLLGRMKG(β-A)C as the molecule, how does the IC50 read?
**A.** 1.8 µM

biological target: T2, HBcAg (Hepatitis B virus genotype D subtype adw, UniProt P03147); test: Peptide inhibition of fusion phage binding to HBcAg-coated wells; conditions: not given
T2 construct: Purification of Particles Comprising Full-Length or Truncated HBcAg; made in house; host or cells: E. coli RB 791
Protocol: Phage-Binding Assay in Solution. […] Aliquots (100 μl) of each mixture were transferred to polystyrene wells (no. 2585, Costar) that had been coated with HBcAg (20 μg/ml in PBS; 125 μl per well). After 1 hr at 6° C. the wells were washed 10 times with TBS/BSA at 0.2 mg/ml. Bound phage were recovered and titered as described in the previous section. All assays were done in triplicate. The HBcAg concentration range was 1.58-50 μM for experiments with phage B2 and B3 and was 0.63-20 μM for experiments with phage B4. For peptide inhibition experiments, fusion phage (10^9 pfu/ml; 200 μl) were incubated with various concentrations of peptide (1 mM-10 nM) in HBcAg-coated wells for 90 min at 6° C.

T2 sequence (P03147 whole entry, the tested form may be a part): as the sequence (P03147 whole entry) above

**Q.** “ALLTRILG (HBV Core Antigen Binding Peptide) [peptide including aa 21-27 of the S region, reference compound]” was tested. Which “inhibition of binding of fusion phage to HBcAg” value did it give?
**A.** inability to inhibit

**Q.** With GRMKG (not fully specified) as the molecule, how does the “inhibition of binding of fusion phage to HBcAg” value read?
**A.** inability to inhibit

biological target: hepatitis B virus core antigen (HBcAg) (hepatitis B virus); test: phage-binding assay in solution: phage incubated with HBcAg, free phage caught on HBcAg-coated wells and titered; conditions: not given

**Q.** For ADGALLGRMKRA (peptide, not shown: large carriers) [phage 6], which KD^Rel (relative dissociation constant) is on record?
**A.** 0.181 µM

**Q.** How did the KD^Rel (relative dissociation constant) turn out when ADGHRSSLLGRMKGA (peptide, not shown: large carriers) [phage 4B-7] was run?
**A.** 0.0014 µM

**Q.** ADGTQRSLLGRMKGA (peptide, not shown: large carriers) [phage 4A-26] was tested. Which KD^Rel (relative dissociation constant) did it give?
**A.** 0.00084 µM

**Q.** Which KD^Rel (relative dissociation constant) does the source give for ADGPRSSLLGRMKGA (peptide, not shown: large carriers) [phage 4A-2] here?
**A.** 0.00084 µM

**Q.** Which KD^Rel (relative dissociation constant) does the source give for ADGALLGRMKPA (peptide, not shown: large carriers) [phage 2] here?
**A.** 0.767 µM

**Q.** Which KD^Rel (relative dissociation constant) does the source give for ADGYQRSLLGRMKGA (peptide, not shown: large carriers) [phage 4A-28] here?
**A.** 0.00088 µM

**Q.** Which KD^Rel (relative dissociation constant) does the source give for ADRSLLGRMKGA (peptide, not shown: large carriers) [phage 2A-8] here?
**A.** 0.00109 µM

**Q.** ADGSLLGRMKPA (peptide, not shown: large carriers) [phage 1] was tested. Which KD^Rel (relative dissociation constant) did it give?
**A.** 0.322 µM

**Q.** With ADGAHRSLLGRMKGA (peptide, not shown: large carriers) [phage 4A-3] as the molecule, how does the KD^Rel (relative dissociation constant) read?
**A.** 0.00094 µM

**Q.** For ADGSRSSLLGRMKGA (peptide, not shown: large carriers) [phage 4A-1], which KD^Rel (relative dissociation constant) is on record?
**A.** 0.00196 µM

**Q.** ADGTLLGRMKLA (peptide, not shown: large carriers) [phage 4] was tested. Which KD^Rel (relative dissociation constant) did it give?
**A.** 0.02 µM
